Here are results for two substances from patent publication US20130036481A1.

A value given as a limit tells only on which side of the number the result lay.

The target in the test is α2β1 integrin on human cortical neurons (human) (UniProt P17301). Put plainly: cell-based or functional assay.

“Human perlecan Domain V, recombinant, C-terminal 6xHis tag (from UniProt P98160 3687-4391) (ligand)”: the EC50 of domain V inhibition of Aβ toxicity in human cortical neurons, domain V alone (FIG. 4) turned out to be 123 nM; the EC50 of domain V inhibition of Aβ toxicity in human cortical neurons, in the presence of a mouse IgG control or the α2 antibodies 1950 and 1998 turned out to be 98 nM; the EC50 of domain V inhibition of Aβ toxicity in human cortical neurons, in the presence of the αV integrin antibody was found to be 47 nM; the EC50 of domain V inhibition of Aβ toxicity in human cortical neurons, in the presence of the β1 integrin antibody was below 38 nM. The average EC50 of domain V inhibition of Aβ40 toxicity in human cortical neurons (alamarBlue viability, n=5 experiments) is 164 nM.
“LG3 C-terminal domain of human perlecan Domain V (amino acids 4188-4391), C-terminal 6xHis tag (from UniProt P98160 4188-4391) (ligand)”: the EC50 of LG3 inhibition of Aβ40 toxicity in human cortical neurons (alamarBlue viability) worked out at 50 nM.
